Measurements: PMC12524584, “Structures, Interactions, and Antimicrobial Activity of the Shortest Thanatin Peptide from Anasa tristis” (International Journal of Molecular Sciences, 2025)
Bridges are numbered along the chain shown (N, C = ends). Where no end group is shown, it is not given here.

Biological target: T1, LptAm of Klebsiella pneumoniae (truncated but functional variant of the LPS transport periplasmic protein … (Klebsiella pneumoniae, UniProt A0A377YZM8 28-159, 15N-labeled))
T1 construct: LptA, periplasmic LPS transport protein of Klebsiella pneumoniae, amino acids 28-159 (LptAm); synthetic gene in pET24a(+); also called 15N-LptAm; source: E. coli BL21, purified (Ni-NTA, size-exclusion chromatography), 15N-labeled in M9 minimal medium
T1 sequence: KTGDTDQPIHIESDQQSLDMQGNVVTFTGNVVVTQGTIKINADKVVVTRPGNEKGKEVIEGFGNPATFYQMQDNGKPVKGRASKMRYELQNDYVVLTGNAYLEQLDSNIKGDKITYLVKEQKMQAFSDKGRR
Assay: NMR titration; 15N-1H HSQC of 15N-LptAm free and with Ana-thanatin at protein:peptide molar ratios 1:1 and 1:2; 298 K
Conditions: both partners purified

B1: Ana-thanatin (16-residue thanatin from Anasa tristis) (peptide)
peptide: VPIYYCNRKTGKCRRL
modifications: disulfide 6-13 (inferred)
notes: thanatin of the squash bug Anasa tristis, 16 residues, V1-L16; Single disulfide-bonded beta-hairpin peptide; the disulfide would join C6 and C13, the only two Cys; also called Anasa tristis thanatin; Ana-thanatin peptide; source: synthetic peptide (chemically synthesized by GenScript)
stoichiometry N: 1
